Three molecules from patent US20150086555A1 can be followed below.

What all share (details): remark: other sources report otherwise
In experiment [1] the target is recombinant soluble homotrimeric HA of A/Solomon Islands/3/06 (H1N1) (Influenza A virus A/Solomon Islands/3/2006(H1N1)).
Experiment [2] concerns the target recombinant soluble homotrimeric HA of A/Hong Kong/1073/99 (H9N2) (Influenza A virus A/Hong Kong/1073/99 (H9N2)).
The target in experiment [3] is T1, recombinant soluble homotrimeric HA of A/South Carolina/1/18 (H1N1) (Influenza A virus A/South Carolina/1/18 (H1N1)).
For experiment [4], the target named is T2, recombinant soluble homotrimeric HA of A/northern shoveler/California/HKWF115/07 (H6) (Influenza A virus A/northern shoveler/California/HKWF115/2007(H6N1)).
Experiment [5] has as its target T3, recombinant soluble homotrimeric HA of A/Egypt/3300-NAMRU3/08 (H5N1) (Influenza A virus A/Egypt/3300-NAMRU3/2008(H5N1)).
Experiment [6] has as its target recombinant soluble homotrimeric HA of A/Vietnam/1203/04 (H5N1) (Influenza A virus A/VietNam/1203/2004(H5N1)).
Experiment [7] has as its target T4, recombinant soluble homotrimeric HA of A/California/4/09 (H1N1) (Influenza A virus A/California/04/2009(H1N1)).
The target in experiment [8] is T5, recombinant soluble homotrimeric HA of A/Hong Kong/2108/03 (H9N2) (Influenza A virus A/HK/2108/2003(H9N2)).
For experiment [9], the target named is recombinant soluble homotrimeric HA of A/Hong Kong/156/97 (H5N1) (Influenza A virus A/Hong Kong/156/97 (H5N1)).
For experiment [10], the target named is T6, recombinant soluble homotrimeric HA of A/Netherlands/219/03 (H7N7) (Influenza A virus A/Netherlands/219/03(H7N7)).
The target of experiment [11] is recombinant soluble homotrimeric HA of A/Japan/305/57 (H2N2) (Influenza A virus A/Japan/305/1957(H2N2)).
The target of experiment [12] is T7, recombinant soluble homotrimeric HA of A/Indonesia/5/05 (H5N1) (Influenza A virus A/Indonesia/5/2005(H5N1)).
The target in experiment [13] is T8, recombinant soluble homotrimeric HA of A/duck/Yangzhou/02/05 (H8N4) (Influenza A virus A/duck/Yangzhou/02/2005(H8N4)).
For experiment [14], the target named is T9, recombinant soluble homotrimeric HA of A/Anhui/1/05 (H5N1) (Influenza A virus A/Anhui/1/2005(H5N1)).
The target of experiment [15] is recombinant soluble homotrimeric HA of A/chicken/Vietnam/NCVD-016/08 (H5N1) (Influenza A virus A/chicken/Vietnam/NCVD-016/2008(H5N1)).
The target of experiment [16] is recombinant soluble homotrimeric HA of A/swine/Ontario/01911-2/99 (H4N6) (Influenza A virus A/Swine/Ontario/01911-2/99 (H4N6)).
The target of experiment [17] is T2, recombinant soluble homotrimeric HA of …. The experiment in a line: HA microarray, BCC supernatant.
Experiment [18] addresses T10, recombinant soluble homotrimeric HA of A/Wisconsin/67/05 (H3N2) (Influenza A virus A/Wisconsin/67/2005(H3N2)). In words: HA microarray, BCC supernatant.
Experiment [19] has as its target T8, recombinant soluble homotrimeric HA of …. The experiment in a line: HA microarray, BCC supernatant.
Experiment [20] has as its target T9, recombinant soluble homotrimeric HA of …. The experiment in a line: HA microarray, BCC supernatant.
Experiment [21] addresses recombinant homotrimeric HA A/duck/Yangzhou/02/05 H8N4 (Influenza A virus A/duck/Yangzhou/02/2005(H8N4)). In words: protein microarray, purified IgG, trimeric HA.
The target in experiment [22] is recombinant homotrimeric HA A/Indonesia/5/05 H5N1 (Influenza A virus A/Indonesia/5/2005(H5N1)). In words: protein microarray, purified IgG, trimeric HA.
The target in experiment [23] is recombinant homotrimeric HA A/Anhui/1/05 H5N1 (Influenza A virus A/Anhui/1/2005(H5N1)). In words: protein microarray, purified IgG, trimeric HA.
The target in experiment [24] is recombinant homotrimeric HA A/Vietnam/1203/04 H5N1 (Influenza A virus A/VietNam/1203/2004(H5N1)). In words: protein microarray, purified IgG, trimeric HA.
Experiment [25] has as its target recombinant homotrimeric HA A/South Carolina/1/18 H1N1 (Influenza A virus A/South Carolina/1/18 (H1N1)). The experiment in a line: protein microarray, purified IgG, trimeric HA.
Experiment [26] addresses recombinant homotrimeric HA A/Hong Kong/156/97 H5N1 (Influenza A virus A/Hong Kong/156/97 (H5N1)). In words: protein microarray, purified IgG, trimeric HA.
The target of experiment [27] is recombinant homotrimeric HA A/northern shoveler/California/HKWF115/07 H6N4 (Influenza A virus A/northern shoveler/California/HKWF115/2007(H6N1)). In words: protein microarray, purified IgG, trimeric HA.
Experiment [28] addresses recombinant homotrimeric HA A/chicken/Vietnam/NCVD-016/08 H5N1 (Influenza A virus A/chicken/Vietnam/NCVD-016/2008(H5N1)). In words: protein microarray, purified IgG, trimeric HA.
In experiment [29] the target is recombinant homotrimeric HA A/Egypt/3300-NAMRU3/08 H5N1 (Influenza A virus A/Egypt/3300-NAMRU3/2008(H5N1)). In words: protein microarray, purified IgG, trimeric HA.
Experiment [30] has as its target recombinant homotrimeric HA A/Netherlands/219/03 H7N7 (Influenza A virus A/Netherlands/219/03(H7N7)). The experiment in a line: protein microarray, purified IgG, trimeric HA.
For experiment [31], the target named is recombinant homotrimeric HA A/swine/Ontario/01911-2/99 H4N6 (Influenza A virus A/Swine/Ontario/01911-2/99 (H4N6)). In words: protein microarray, purified IgG, trimeric HA.
For experiment [32], the target named is recombinant homotrimeric HA A/Japan/305/57 H2N2 (Influenza A virus A/Japan/305/1957(H2N2)). In words: protein microarray, purified IgG, trimeric HA.
In experiment [33] the target is recombinant homotrimeric HA A/Wisconsin/67/05 H3N2 (Influenza A virus A/Wisconsin/67/2005(H3N2)). In words: protein microarray, purified IgG, trimeric HA.
The target of experiment [34] is T1, recombinant soluble homotrimeric HA of …. The experiment in a line: trimeric HA microarray, transfection supernatant set 3.
Experiment [35] deals with T3, recombinant soluble homotrimeric HA of …. The description is as above.
Experiment [36] deals with T4, recombinant soluble homotrimeric HA of …. The experiment is described as above.
Experiment [37] deals with T5, recombinant soluble homotrimeric HA of …. Described as above.
The target in experiment [38] is T6, recombinant soluble homotrimeric HA of …. The description is as above.
In experiment [39] the target is T10, recombinant soluble homotrimeric HA of …. Described as above.
Experiment [40] concerns the target T7, recombinant soluble homotrimeric HA of …. The description is as above.
In experiment [41] the target is T8, recombinant soluble homotrimeric HA of …. Described as above.
Experiment [42] deals with T9, recombinant soluble homotrimeric HA of …. The experiment is described as above.
For experiment [43], the target named is recombinant soluble homotrimeric HA of H1N1 A/California/04/09 (Influenza A virus A/California/04/2009(H1N1)). The experiment in a line: ProteOn biosensor, HA-CA captured on anti-V5 surface, Fab in solution.

“And” between values parts separate entries of the source, which are not always exact repeats. Equal entries are not always repeated. Where two headings read alike, the source gives them in different places.

B1: TCN-564 (5256_A17b) (antibody, V domains shown)
VH: QVQLVQSGADVKKPGSSVTVSCKASGGSFSNYGINWVRQAPGQGLEWMGGIIPLINAPNYAPKFQGRVTITADMFSNIVSLQLTSLRTDDTAVYYCARRKMTTAIDYWGQGTLVTVSS
VL: QPVLSQPPSASASLGASVTLTCTLSSGFDNYQVAWYQQRPGKGPRFVMRVGNGGNVASKGDGIPDRFSVSGSGLNRYLTIKNIQEDDESDYYCGADHGSGNNFVSPYVFGGGTKLTVL
Regarding B1, the Trimeric HA Binding: RLU in [1] came out at 8570 RLU; in experiment [2], 9470 RLU; in experiment [3], 15100 RLU; in [4], 16000 RLU; in experiment [5], 19900 RLU; in [6] it was 25400 RLU. Further, the Trimeric HA Binding: RLU was determined as 27500 RLU in [7]; 272 RLU in experiment [8]; 18100 RLU in experiment [9]; 1410 RLU in [10]; 20200 RLU in experiment [11]; 26300 RLU in experiment [12]. Further, the Trimeric HA Binding: RLU in experiment [13] is 369 RLU; in [14] it was 4260 RLU; in experiment [15], 5860 RLU; in experiment [16], 251 RLU.

B2: TCN-531 (5091_H13) (antibody, V domains shown)
VH: EVQLVESGGDLVQPGRSLKLSCTGSGFTFGDYGVTWVRQAPGKGLEWVGFIRTRPWGGTADTAASVKGRFTISRDDSKSLAYLQMNSLKTEDTAVYYCCRDAPPNVEVASMTNWYFDLWGRGTLVTVSS
VL: DIQLTQSPSSLSASVGDRVTITCRASQGILNCLAWYQQKPGKVPNLLMYAASTLQSGVPSRFSGSGFGTDFTLTISSLQPEDVATYYCQTYGGVSTFGGGTKVEIR
On to B2, for which the Trimeric HA Binding: RLU in experiment [17] was 43900 RLU; in experiment [18] it was 7090 RLU; in experiment [19], 3120 RLU; in experiment [20], 3610 RLU; in [21], 112 RLU; in [22] it was 84 RLU. The Trimeric HA Binding: RLU was found to be 4960 RLU in experiment [23]; 488 RLU in experiment [24]; 56 RLU in experiment [25]; 259 RLU in [26]; 45 RLU in experiment [27]; 124 RLU in [28]. Besides, the Trimeric HA Binding: RLU came to 2810 RLU in experiment [29]; 170 RLU in experiment [30]; 84 RLU in [31]; 441 RLU in [32]; 20600 RLU in [33]; 1560 RLU in experiment [34]. Further, the Trimeric HA Binding: RLU was 363 RLU in [35]; 2830 RLU in experiment [36]; 158 RLU in experiment [37]; 384 RLU in [38]; 4160 RLU in experiment [39]; 54 RLU in [40]. Moreover, the Trimeric HA Binding: RLU in [41] was determined as 3220 RLU; in [42], 76 RLU.

B3: Fab fragment of TCN-522 (Fab, V domains shown)
VH: QVQLQQWGAGLLKPSETLSLTCTVSGGSLTDYSWNWIRQPPGKGLEWIGDTLHNGYTNYNPSLRGRVSISIDTSKNQVSLRLTSVTAADTALYYCARGSGGYGGFDYFGKLRTWDFWGQGTLVTVSS
VL: DIQLTQSPSSLSASVGDRVTITCRASQGIRNDLGWYQQKPGNAPKRLIFGASSLQSGVPSRFSGSGSGTEFTLTISSLQPEDFATYYCLQHNSYPYTFGQGTKLEIK
With B3, the fold slower on-rate (ka) than the other Fabs in [43] is 5 fold and 8 fold.
